According to patent US20030186377:

Tested on: T-bet protein (modified forms used as substrates in in vitro kinase assays)

Row | Substance | phosphorylation in in vitro kinase assay
1 | ITK | Both the ITK and Rlk/txk kinases have been found to phosphorylate T-bet in vitro.
2 | Rlk/Txk | Both the ITK and Rlk/txk kinases have been found to phosphorylate T-bet in vitro.
